The text below walks through data of patent publication US7455998B2, “Methods for forming structurally defined organic molecules” (Dow Corning Corporation, priority 2004, dated 2008).

≈ marks a conversion by molar mass, not a printed value.

One may read the solubility as the concentration that dissolves in the medium under given conditions.

In data set [1] the target is T1, trypsin (Bos taurus, UniProt P00760).
T1 sequence (P00760 24-246): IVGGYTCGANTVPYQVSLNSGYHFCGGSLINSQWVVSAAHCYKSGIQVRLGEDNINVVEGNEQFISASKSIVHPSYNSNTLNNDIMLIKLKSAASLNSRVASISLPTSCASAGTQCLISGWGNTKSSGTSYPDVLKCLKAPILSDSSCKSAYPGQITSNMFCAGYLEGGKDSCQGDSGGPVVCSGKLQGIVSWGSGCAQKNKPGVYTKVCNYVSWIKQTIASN
Kind of data set: Trypsin-catalyzed hydrolysis and condensation of alkoxysilanes. In kind it is biochemical, bovine. Details: purchased Sigma-Aldrich #T4665; host or cells: bovine pancreas.

A short description of data set [2]: Estimated solubility in water.
In data set [3] the target is T1, trypsin. Kind of data set: Trypsin-catalyzed polycondensation, seven days. It counts as biochemical, bovine. Details: purchased Sigma-Aldrich #T4665; host or cells: bovine pancreas. To be noted: 25° C.
Data set [4] deals with T1, trypsin. To be noted: neutral medium (pH 7.0) and toluene.
Data set [5] is described as follows: Enzyme-catalyzed condensation study after six days. It counts as biochemical. An excerpt:
This study was directed to an enzyme screen with […] in order to evaluate the ability of various enzymes to catalyze the formation of a siloxane bond. Based on the similarities of the proteins isolated from the Tethya aurantia marine sponge (silicatein), Cylindrotheca fusiformis diatom (silaffin), and Equisetum telmateia plant (biopolymer extract), a series of lipases and serine-proteases were selected as homologous proteolytic enzymes. […] […]. In this study, control reactions were defined as non-enzymatic reactions. Specifically, experiments conducted in the absence of a protein were defined as negative control reactions. Proteinaceous molecules such as bovine serum albumin and porcine γ-globulins were used to study non-specific protein catalysis.
[…]. […] (˜200 mg/mL).

The nature of data set [6]: Hydrolysis and condensation of trimethylethoxysilane by different sources of trypsin; effect of calcium. The settings on record: 20 mM CaCl2, pH 7.0, 25° C., three hours. It counts as biochemical. An excerpt: Although various sources (e.g. mammalian, fish) of trypsin are similar (e.g. tertiary structure), their selectivity and activity may be different. […] . The reaction products were isolated and quantitatively analysed by GC (FIG. 24).
Calcium activation of trypsin induces changes in the tertiary structure of the enzyme. […] . […] The reaction products were isolated and quantitatively analysed by GC (FIG. 25).

Data set [7] can be described thus: Temperature and pH studies of the trypsin-catalyzed condensation of trimethylsilanol. In kind it is biochemical. The protocol: The effect of temperature on trypsin as well as the enzyme-catalyzed condensation reaction was studied. Prior to reaction, buffered aqueous solutions (pH 7.0) of trypsin were stirred and equilibrated at set temperatures in a thermostated water bath (+/−0.1° C.) for 20 minutes. […] In the thermal denaturation experiments, trypsin was boiled for 20 minutes and three hours in 50 mM Tris-HCl buffered Milli-Q water (pH 7.0), independently, before performing the condensation reaction at 25° C.
. […] Based on the chromatographic data, the enzyme-catalyzed condensation reaction was dependent on the pH. The silanol condensation reaction was optimum at pH 7.0.

Data set [8] in a line: Protease-catalyzed condensation study after three hours. To be noted: pH 7.0, three hours. It counts as biochemical. The protocol:
In comparison to control reactions, the ability of the proteases detailed in Table 3 to catalyse siloxane condensation was screened with […]. Comparatively, the original reactions conducted in the enzyme-catalysed condensation study were performed for six days versus three hours in this study.
Prior to reaction, the glass vials were silylated. […].
TLCK inhibits trypsin by alkylating the histidine residue in the catalytic triad.

The target of data set [9] is T1, trypsin. Briefly: Proteinaceous inhibition of the trimethylethoxysilane reaction. It counts as biochemical, bovine. To be noted: 25° C., three hours, pH 7.0. Details: purchased Sigma-Aldrich #T4665; host or cells: bovine pancreas. The protocol: A proteinaceous inhibition study was conducted to investigate the role of the enzymatic active site in the hydrolysis and condensation of trimethylethoxysilane. […] .

The target of data set [10] is T1, trypsin. Kind of data set: Standard enzymatic activity assay of inhibited trypsin. To be noted: excess inhibitor (4:1 BBI, 2:1 PCI to protease mole ratio), pH 7.0, two hours. In kind it is biochemical, bovine. Further details: purchased Sigma-Aldrich #T4665; host or cells: bovine pancreas. Here is the method:
Since α-chymotrypsin was inhibited by PCI, the presence of trypsin in α-chymotrypsin was confirmed. […] .
A proteinaceous inhibition study was conducted to investigate the role of the enzymatic active site in the hydrolysis and condensation of trimethylethoxysilane.

For a further data set, the target named is T2, α-chymotrypsin (Bos taurus, UniProt P00766).
T2 construct: purchased Sigma-Aldrich #C-4129; host or cells: bovine pancreas
Kind of data set: Standard enzymatic activity assay of inhibited α-chymotrypsin. It counts as biochemical, bovine. The settings on record: excess inhibitor (4:1 BBI to protease mole ratio), pH 7.0, two hours. An excerpt: Since α-chymotrypsin was inhibited by PCI, the presence of trypsin in α-chymotrypsin was confirmed. In addition, condensation was not observed despite the partial inhibition of α-chymotrypsin with BBI.

For `CCO[Si](C)(C)C` [trimethylethoxysilane], the “trypsin-catalyzed hydrolysis and condensation (result in words)” value at trypsin [1] (4:1 monomer to enzyme weight ratio, 25° C., three hours) is “preferentially catalyze the hydrolysis and condensation”. On trypsin [1] (10° C.), the “relative turnover number of hydrolysis” value is 0.53 s⁻¹. Also, on trypsin [1] (pH 7.0, 25° C., three hours), the “condensed in the presence of trypsin” value was determined as 84% and the “hydrolysed in the presence of trypsin” value is reported as 100%. Besides, the solubility in data set [2] is 1000 µg/mL (≈ 8.46 mM).
In the case of `CCO[Si](C)(OCC)OCC` [methyltriethoxysilane], the “trypsin-catalyzed polycondensation (result in words)” value on trypsin [3] is “promoted the complete hydrolysis and, subsequent, polycondensation”.
Turning to `C[Si](C)(C)O[Si](C)(C)C` [hexamethyldisiloxane], the “trypsin-catalyzed hydrolysis of the siloxane bond (reverse reaction)” value at trypsin [4] is listed as “not observed to catalyze the hydrolysis of a siloxane bond”.

B1: trypsin: bovine pancreatic trypsin, commercial preparation (protein, UniProt P00760 24-246, looked up)
Serine protease 1: T1 sequence (P00760 24-246)
For B1, in [5] (50 mM Tris-HCl pH 7.0, 25° C.), the “condensation of trimethylsilanol, Buffered pH 7” value was “✓ (determined to catalyse the condensation of greater than ten times more trimethylsilanol than the negative control reactions; as well as, greater than three or ten times more trimethylsilanol than the BSA reactions in organic and aqueous media, respectively)”. In data set [5] (dry toluene, 25° C.), the “condensation of trimethylsilanol, Dry Toluene” value is “✓ (determined to catalyse the condensation of greater than ten times more trimethylsilanol than the negative control reactions; as well as, greater than three or ten times more trimethylsilanol than the BSA reactions in organic and aqueous media, respectively)”. The “condensation of trimethylsilanol, Water” value in data set [5] (water, 25° C.) is “✓ (determined to catalyse the condensation of greater than ten times more trimethylsilanol than the negative control reactions; as well as, greater than three or ten times more trimethylsilanol than the BSA reactions in organic and aqueous media, respectively)”. Besides, the “condensation of trimethylsilanol, Wet Toluene” value in [5] (wet toluene, 25° C.) is “✓ (determined to catalyse the condensation of greater than ten times more trimethylsilanol than the negative control reactions; as well as, greater than three or ten times more trimethylsilanol than the BSA reactions in organic and aqueous media, respectively)”. The “increase of yield of the condensation of trimethylsilanol with calcium” value in data set [6] is recorded as “did not change”. The “optimum pH of the silanol condensation reaction” value in [7] (25° C., three hours, pH 4.0 to pH 10.0) is reported as 7.0. In addition, in [7] (pH 7.0, three hours), the “optimum temperature of the condensation reaction” value was “approximately 25 °C”. Further, the “condensation of trimethylsilanol (result in words)” value in data set [8] is “preferentially catalyzed the condensation”.

B2: PCI: trypsin inhibitor from Glycine max, 181 amino acids (protein, UniProt P01070 25-205, looked up)
Trypsin inhibitor A: DFVLDNEGNPLENGGTYYILSDITAFGGIRAAPTGNERCPLTVVQSRNELDKGIGTIISSPYRIRFIAEGHPLSLKFDSFAVIMLCVGIPTEWSVVEDLPEGPAVKIGENKDAMDGWFRLERVSDDEFNNYKLVFCPQQAEDDKCGDIGISIDHDDGTRRLVVSKNKPLVVQFQKLDKESL
On to B2, for which, in the data set with trypsin [9], the “decrease of percent hydrolysis of trimethylethoxysilane with inhibited trypsin” value worked out at 6%. Besides, the inhibition of trypsin with trypsin [10] is reported as 91%.

B3: BBI: trypsin-chymotrypsin inhibitor from soybean, 71 amino acids (protein, UniProt P01055 40-110, looked up)
Bowman-Birk type proteinase …: DDESSKPCCDQCACTKSNPPQCRCSDMRLNSCHSACKSCICALSYPAQCFCVDITDFCYEPCKPSEDDKEN
In the case of B3, the “inhibition of α-chymotrypsin” value with α-chymotrypsin amounted to 63%. Moreover, in the data set with trypsin [9], the “decrease of percent hydrolysis of trimethylethoxysilane with inhibited trypsin” value is 24%. In addition, the inhibition of trypsin in the data set with trypsin [10] was determined as 98%.
